The results in this text go back to paper PMC4928094, “The first characterization of multidrug and toxin extrusion (MATE/SLC47) proteins in zebrafish (Danio rerio)” (Scientific Reports, 2016).

The Km is the substrate concentration at which the rate is half of its maximum.

Experiment in all cases: cells, lysate or membranes
Holding throughout (settings): dye uptake, HEK293T, mean ± SD

Substrate in data set [1]: CN(C)c1ccc(/C=C/c2cc[n+](C)cc2)cc1
Method: (§1) Calibration curves for all substrates were generated in 0.1% SDS and in the cell matrix dissolved in 0.1% SDS. Resulting linear calibration curves were the same in the SDS and in the dissolved cell matrix. Using the calibration curves, uptake was expressed as pmol of substrate per mg of protein per minute. Total cell protein content was determined according to the Bradford method[33].
(§2) All assays were performed in 3–5 independent experiments run in triplicates. […] All calculations were performed using GraphPad Prism 5.00 for Windows (GraphPad Software, San Diego, California, USA) as described below. The kinetic parameters, Km and Vmax values were calculated using the Michaelis-Menten equation,
(§3) where V is velocity (picomoles of substrate per milligram of proteins per minute), Vmax is maximal velocity, [S] is substrate concentration and Km is the Michaelis Menten constant.
Substrate in data set [2]: COC(=O)c1ccccc1-c1c2ccc(=N)cc-2oc2cc(N)ccc12
Method: as §1, §2, §3
Substrate in data set [3]: COc1ccc2cc3[n+](cc2c1OC)CCc1cc2c(cc1-3)OCO2
Method: as §1, §2, §3
Substrate in data set [4]: N=C(N)NC(=O)c1nc(Cl)c(N)nc1N
Method: as §1, §2, §3
Setting [5] is: other: Mate8, NT = no transport found.
Where [6] appears, read: other: Mate3, triplicate, representative experiment.

B1: zebrafish Mate8 (Danio rerio) (protein)
chain: MDVSSPTTEASSMEPSTKLFCCRSVRRCIPLVYRQELYHILCMTGPLVASRILNYLLPFVITMFCGRLGNSVLAGYGMASATINITTAATGGGLALAADTLISQTFGGKNLRRVGIILQRSVLILLLFCLPCCALLINTQPILLLLRQDPEVARIAQLYVVCYLPAVPAMFLHQLQVAYLQNQGVILPQMYAGIAANVANVLTNYILLHWLELGVYGSAAANTISQIYICAFLYLYIRWKKLHVETWGGWSCDSLQEWDGYMKLAIPSTMMLCFEWWIYEVGGFLAGMLGELDLAAQHAVIMLAFINYMFPLGIQGAACVRVGNALGAGDTAGAIRTSKVSLTCTAALAVLQGLVLVSTKTVIGFLFTSDRHIVALVSKLLNVYCVLQFFDGLVCVSMGILLGSGQQKIAAVANFFGYYCIGLPLGTSLMFAAKLDVVGFWLGLLICVCVQSSFFIGVIFKFNWERVTKEAVERAGRTKISAMTAPDSITARHRENGDEYITVSAADPNVEPNATGVEEKPPVLLSTSQLVLRRGLTTLAALLILAGGITVHLIVPLPQMFYGAAANFTLNSNFTTPSSFIHSTSASL
Regarding B1, in data set [1] (setting [5]), the Km stood at 2.34 ± 0.37 µM and the Vmax worked out at 22.2 ± 1.09 pmol/mg protein/min. In addition, the Km in data set [2] (setting [5]) stood at 0.88 ± 0.14 µM.

B2: zebrafish Mate7 (Danio rerio) (protein)
chain: MDVSSPGTDNLSMEPSAKLFCCGFMRRCIPLVYREELYHILRMTGPLLVCRFLNFLLFFVVTMFCGRLGNTVLAGYAMASATINVTAAATGLGLALACDTLVSQTFGSKNLLRVGIILQRGIVILTLFSLPCWALLVNTQPLLLYLGQEPEVARIAQLYVVVYLPAIPAMFLYQLQLSYLQNQGVIKPQMYASAVANVANVIANYFLLYWWDFGVYGSAAANTFAQVFNCFALFCFIRWQKLHEKTWGGWSLEALQDWGSYMKLAIPSTLMTCFEWWIYEVGGFLAGMLSEVDLAAQHVVIMLAYINYMIPLGMQGAACVRVGNALGAGETAAAILTSKVSLISAAVIAIIQGFVLGSTKTVIGYIFTSDESITELVSQLLNIYCPLQFFNGILCVGMGVLLGTGQQKIAAIANLFGYYCVGLPSSIVLMFTAGLQVAGFWLGLLIAVFLLAIFFTVAIFKLNWKKMTEEAIARTGKSANGAANGTMTTEFCSNHRNSFYQVVLNAENGNGYMVVSSQDQDERLNSTAVPEEPNVTGVEEKPPVLLSTTQLVLRRGLTTVAALLILAVGIIIHLTVPLPQVSYGAGANYTVDSNFTTANPIYSTSFI
B2: the Km in data set [1] (other: Mate7) is 3.51 ± 0.27 µM; in data set [2] (other: Mate7), 0.22 ± 0.03 µM; in data set [3] (other: Mate7) it was 1.76 ± 0.38 µM; in data set [4] (other: Mate7), 20.6 ± 4.20 µM. In addition, the Vmax was 52.3 ± 1.26 pmol/mg protein/min in data set [1] (other: Mate7), 28.0 ± 2.39 pmol/mg protein/min in data set [3] (other: Mate7) and 19.8 ± 1.84 pmol/mg protein/min in data set [4] (other: Mate7).

B3: zebrafish Mate6 (Danio rerio) (protein)
chain: MPEAGGPLANTEQITEATAPSSKLLGCSCVRRWVPLAYREELYHVLCLTGPLLISRILSFLLPFVTTIFCGHLGNAELAGYALASATVNVTTTATGCGLALACDTLVSQTFGSKNHKRVGEILQRSMLILLLFCLPCWAILINAESILLALKQEPEVARIAQLYVTAYLPAVPAMFLHYLQVSYLQNQGIILPQMYTAVAANILNVATNYILLHAMKLGVKGSAAANSISQITICLLLFAYIRWKKLHLKTWGGWSTASLQEWGSYMKLAIPSTLMLCFEWWIYEIGGFLAGMLGEVDLAAQHVLLEIGSIAYMFPLGVHAAACVRVGNALGAGDTVRALITSKVTLMISGILAFAQGIGIALTKSKLGYIFTSDESIVAIVSQNLTLYVFLQFFDALVCVCSGILLGAGKQKIAAVSNLICYYCIGLPVGISLMFLAELRILGLWLGLLICVIIQTCFFTTLIFKLDWKKVTEQAQKRAGKHAKVVCLPKAPLIGPVVETLVSEDQDNTEQTDGTSSIPEPWDDITGNKAQLTSSSSEVSSYIQVSTQDQDKLASECGEGQPKVLLSIKQLVLRRGLTLLITLLILIAGITVHVVCPLPEHSVQRQSNFTNDSGNFSTPFSILNITMS
For the protein B3, the Km in data set [1] (other: Mate6) stood at 6.23 ± 1.02 µM; in data set [2] (other: Mate6) it was 1.73 ± 0.16 µM; in data set [3] (other: Mate6), 8.35 ± 1.00 µM; in data set [4] (other: Mate6) it was 11.1 ± 2.12 µM. In addition, the results for the Vmax in data set [1] (other: Mate6), in data set [3] (other: Mate6) and in data set [4] (other: Mate6) were 160 ± 10.8 pmol/mg protein/min, 215 ± 9.72 pmol/mg protein/min and 24.8 ± 1.54 pmol/mg protein/min, respectively.

B4: zebrafish Mate3 (Danio rerio) (protein)
chain: MDSITSYNVTQMNGDTKQEKCDDVLSTSSTQKFCGGCRKKLRSLLPVNYKTEIVELLKLAGPVFISQLMIFLISFVSTVFCGHLGKTELAGVALAIAVINVTGISIGSGLASACDTLISQTFGSNNLKRVGVILQRGILILLLACFPCWALLINTEPILLAVRQSPNVASLSQLYVKIFMPALPAAFMYQLQGRYLQNQGIIWPQVITGAAGNILNALINYVFLHLLELGVAGSAAANTISQYSLAVFLYVYIRWKNLHKATWDGWSRDCLQEWGAFIRLALPSMLMLCVEWWTYEIGGFLAGLISETELGAQSVVYELATIAYMFPLGFAVAASVRVGNALGAGNTERAKLSAKVALVCGVLVSCVVATLIGCTKDVIAYIFTTEEEIVSRVSQVMIMYGFFHLFDAIAGITGGIVRGAGKQLLGALCNIVGYYFVGFPTGVSLMFALSMGIIGLWIGFFGCVFLQSLFFIILIYKLDWKKATQEALIRAGVQLTETKDESFGLENKGCTEEAAKESQITEEGLTDANTDLEGLSKGGEGISEAGAKTTVGAVLTTKQLIVRRGLAVLLMVLILAGGIVLNEMLVRYLR
As for B4, the Michaelis constant (Km) in data set [1] (setting [6]) was found to be 13.4 ± 1.55 µM; in data set [2] (setting [6]) it was 8.52 ± 1.25 µM; in data set [3] (setting [6]), 14.4 ± 5.14 µM; in data set [4] (setting [6]), 33.4 ± 4.57 µM. For the same protein, the Vmax in data set [1] (setting [6]) came to 296 ± 14.0 pmol/mg protein/min; in data set [3] (setting [6]) it was 242 ± 46.9 pmol/mg protein/min; in data set [4] (setting [6]), 53.1 ± 4.0 pmol/mg protein/min.
